The text below walks through data of patent publication US7067474B1, “Agents for treating human illnesses based on β-catenin, and the production and use thereof” (Max-Delbruck-Centrum fur Molekulare Medizin, priority 1998, dated 2006).

Type in all cases: binding
For one experiment, the target named is T1, conductin (Mus musculus, UniProt O88566).
T1 construct: conductin for the amino acids Ala342–ARG465; expressed in transfected cells; host or cells: yeast (two-hybrid, Matchmaker, Clontech)
The experiment is described as follows: yeast 2-hybrid: interaction of β-catenin mutants with conductin. To be noted: for Interaction With Conductin, share of wild type β-catenin interaction: yeast 2-hybrid, alanine mutants; for interaction with conductin: β-catenin mutation, in words. As to the method: (§1) The mutagenesis of β-catenin in the armadillo repeats 3–8 was carried out by means of the “mutagenesis kit” of the company Clontech according to the producer's record and the mutants were checked by sequencing (FIG. 5). In all mutants the original amino acid was substituted by alanine. For analyzing the interactions the cDNA of human β-catenin (armadillo repeat 3 up to the C-terminal end of the protein) coding for the amino acids Leu218–Leu7 μl or its mutants was cloned into the fusion vector for the activation domain of Gal-4 (pGAD424, Clontech). The cDNA for the binding domains of the interaction partners was cloned into the Lex-A fusion vector BTM 116. To this end, the cDNA of LEF-1 for the amino acids 1–99, conductin for the amino acids Ala342–ARG465; of human APC for the amino acids His1012–Glu1215 (APC 15 amino acid repeats) and for the amino acids Ser1259Asp 1400 (APC 20 amino acid repeats) and E-cadherin for the amino acids Gin773–Asp884 (cytoplasmatic domain) were amplified with the respective primers PCR. The interaction of the Lex-A hybrids with β-catenin and its mutants was quantified by means of the β-galactosidase reporter activity in the yeast 2-hybrid system (report: “Matchmaker”. Clontech) (Tab. 2 and FIG. 6).

In another experiment the target is T2, E-cadherin (Mus musculus, UniProt P09803).
T2 construct: E-cadherin for the amino acids Gin773–Asp884 (cytoplasmatic domain); expressed in transfected cells; host or cells: yeast (two-hybrid, Matchmaker, Clontech)
T2 sequence (P09803 773-884): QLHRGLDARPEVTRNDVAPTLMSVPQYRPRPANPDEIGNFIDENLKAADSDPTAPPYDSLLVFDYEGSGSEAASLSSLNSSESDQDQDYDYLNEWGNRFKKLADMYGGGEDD
Nature of the experiment: yeast 2-hybrid: interaction of β-catenin mutants with E-cadherin. To be noted: alanine mutants. As to the method:
as §1

The target in experiment [1] is T3, APC (15 amino acid repeats) (Homo sapiens, UniProt P25054).
T3 construct: of human APC for the amino acids His1012–Glu1215 (APC 15 amino acid repeats); expressed in transfected cells; host or cells: yeast (two-hybrid, Matchmaker, Clontech)
T3 sequence (P25054 1006-1209 limits assumed): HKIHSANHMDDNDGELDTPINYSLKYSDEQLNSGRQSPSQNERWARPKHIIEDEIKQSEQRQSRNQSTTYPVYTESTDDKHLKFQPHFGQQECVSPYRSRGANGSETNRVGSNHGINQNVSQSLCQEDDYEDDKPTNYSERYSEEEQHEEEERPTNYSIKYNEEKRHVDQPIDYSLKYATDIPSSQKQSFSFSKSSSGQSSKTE
Nature of the experiment: yeast 2-hybrid: interaction of β-catenin mutants with APC 15 amino acid repeats. To be noted: yeast 2-hybrid, alanine mutants. The method, then: as §1

Experiment [2] addresses T4, APC (20 amino acid repeats) (Homo sapiens, UniProt P25054).
T4 construct: for the amino acids Ser1259Asp 1400 (APC 20 amino acid repeats); expressed in transfected cells; host or cells: yeast (two-hybrid, Matchmaker, Clontech)
T4 sequence (P25054 1253-1394 limits assumed): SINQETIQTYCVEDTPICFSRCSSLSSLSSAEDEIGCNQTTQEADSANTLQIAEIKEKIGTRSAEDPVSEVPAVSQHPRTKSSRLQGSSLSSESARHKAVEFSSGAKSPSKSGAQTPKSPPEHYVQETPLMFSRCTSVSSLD
Nature of the experiment: yeast 2-hybrid: interaction of β-catenin mutants with APC 20 amino acid repeats. The note with it: for Interaction With APC-20, share of wild type β-catenin interaction: yeast 2-hybrid, alanine mutants. As to the method: as §1

The next experiment addresses T5, LEF-1 (Mus musculus, UniProt P27782).
T5 construct: the cDNA of LEF-1 for the amino acids 1–99; expressed in transfected cells; host or cells: yeast (two-hybrid, Matchmaker, Clontech)
The experiment is described as follows: yeast 2-hybrid: interaction of β-catenin mutants with LEF-1. To be noted: for Interaction With LEF-1, share of wild type β-catenin interaction: yeast 2-hybrid, alanine mutants. The method, then:
as §1

“Also recorded” adds a separate entry of the source.

T1 sequence (O88566 343-465 limits assumed): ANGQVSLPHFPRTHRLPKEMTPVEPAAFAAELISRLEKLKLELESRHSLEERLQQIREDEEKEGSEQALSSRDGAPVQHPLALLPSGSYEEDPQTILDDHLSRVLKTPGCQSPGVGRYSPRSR
T5 sequence (P27782 1-99): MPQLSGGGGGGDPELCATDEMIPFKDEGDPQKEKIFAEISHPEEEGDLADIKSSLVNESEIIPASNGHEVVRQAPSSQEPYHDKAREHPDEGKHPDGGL

B1: His 470: human β-catenin mutant, His 470 substituted by alanine (arm 8) (protein)
chain: LHNLSHHREGLLAIFKSGGIPALVKMLGSPVDSVLFYAITTLHNLLLHQEGAKMAVRLAGGLQKMVALLNKTNVKFLAITTDCLQILAYGNQESKLIILASGGPQALVNIMRTYTYEKLLWTTSRVLKVLSVCSSNKPAIVEAGGMQALGLHLTDPSQRLVQNCLWTLRNLSDAATKQEGMEGLLGTLVQLLGSDDINVVTCAAGILSNLTCNNYKNKMMVCQVGGIEALVRTVLRAGDREDITEPAICALRALTSRHQEAEMAQNAVRLHYGLPVVVKLLHPPSHWPLIKATVGLIRNLALCPANHAPLREQGAIPRLVQLLVRAHQDTQRRTSMGGTQQQFVEGVRMEEIVEGCTGALHILARDVHNRIVIRGLNTIPLFVQLLYSPIENIQRVAAGVLCELAQDKEAAEAIEAEGATAPLTELLHSRNEGVATYAAAVLFRMSEDKPQDYKKRLSVELTSSLFRTEPMAWNETADLGLDIGAQGEPLGYRQDDPSYRSFHSGGYGQDALGMDPMMEHEMGGHHPGADYPVDGLPDLGHAQDLMDGLPPGDSNQLAWFDTDL
modifications: left off: large carriers; small tags and cut ends
Turning to B1, the “Interaction With Conductin, share of wild type β-catenin interaction” value (“Interaction With Conductin, share” for short) with conductin is “— (Interactions marked by — correspond to 60–100% of the wild type interaction)”. Moreover, the “Interaction With E-Cadherin, share of wild type β-catenin interaction” value (“Interaction With E-Cadherin, share” below) with E-cadherin is reported as “— (Interactions marked by — correspond to 60–100% of the wild type interaction)”. Moreover, the “Interaction With APC-15, share of wild type β-catenin interaction” value (“Interaction With APC-15, share” below) in experiment [1] came out at 60%. Further, the “Interaction With APC-20, share of wild type β-catenin interaction” value (“Interaction With APC-20, share” below) in experiment [2] was 47%. In addition, the “interaction with LEF-1/TCF-4” value with LEF-1 (β-catenin mutation, in words) is reported as “blocking the interaction; also recorded: no interaction with LEF-1/TCF-4”.

B2: Trp 338: human β-catenin mutant, Trp 338 substituted by alanine (arm 5) (protein)
chain: LHNLSHHREGLLAIFKSGGIPALVKMLGSPVDSVLFYAITTLHNLLLHQEGAKMAVRLAGGLQKMVALLNKTNVKFLAITTDCLQILAYGNQESKLIILASGGPQALVNIMRTYTYEKLLATTSRVLKVLSVCSSNKPAIVEAGGMQALGLHLTDPSQRLVQNCLWTLRNLSDAATKQEGMEGLLGTLVQLLGSDDINVVTCAAGILSNLTCNNYKNKMMVCQVGGIEALVRTVLRAGDREDITEPAICALRHLTSRHQEAEMAQNAVRLHYGLPVVVKLLHPPSHWPLIKATVGLIRNLALCPANHAPLREQGAIPRLVQLLVRAHQDTQRRTSMGGTQQQFVEGVRMEEIVEGCTGALHILARDVHNRIVIRGLNTIPLFVQLLYSPIENIQRVAAGVLCELAQDKEAAEAIEAEGATAPLTELLHSRNEGVATYAAAVLFRMSEDKPQDYKKRLSVELTSSLFRTEPMAWNETADLGLDIGAQGEPLGYRQDDPSYRSFHSGGYGQDALGMDPMMEHEMGGHHPGADYPVDGLPDLGHAQDLMDGLPPGDSNQLAWFDTDL
modifications: left off: large carriers; small tags and cut ends
Take B2: in the experiment with conductin, the “Interaction With Conductin, share” value is listed as 20% and the interaction with conductin entry was “no interaction with conductin”. The “Interaction With E-Cadherin, share” value with E-cadherin is recorded as “— (Interactions marked by — correspond to 60–100% of the wild type interaction)”. The “Interaction With APC-15, share” value in experiment [1] is reported as “— (Interactions marked by — correspond to 60–100% of the wild type interaction)”. For the same molecule, the “Interaction With APC-20, share” value in experiment [2] worked out at 55%. Besides, in the experiment with LEF-1, the “Interaction With LEF-1, share of wild type β-catenin interaction” value (“Interaction With LEF-1, share” below) is given as “— (Interactions marked by — correspond to 60–100% of the wild type interaction)”.

B3: Trp 383: human β-catenin mutant, Trp 383 substituted by alanine (arm 6) (protein)
chain: LHNLSHHREGLLAIFKSGGIPALVKMLGSPVDSVLFYAITTLHNLLLHQEGAKMAVRLAGGLQKMVALLNKTNVKFLAITTDCLQILAYGNQESKLIILASGGPQALVNIMRTYTYEKLLWTTSRVLKVLSVCSSNKPAIVEAGGMQALGLHLTDPSQRLVQNCLATLRNLSDAATKQEGMEGLLGTLVQLLGSDDINVVTCAAGILSNLTCNNYKNKMMVCQVGGIEALVRTVLRAGDREDITEPAICALRHLTSRHQEAEMAQNAVRLHYGLPVVVKLLHPPSHWPLIKATVGLIRNLALCPANHAPLREQGAIPRLVQLLVRAHQDTQRRTSMGGTQQQFVEGVRMEEIVEGCTGALHILARDVHNRIVIRGLNTIPLFVQLLYSPIENIQRVAAGVLCELAQDKEAAEAIEAEGATAPLTELLHSRNEGVATYAAAVLFRMSEDKPQDYKKRLSVELTSSLFRTEPMAWNETADLGLDIGAQGEPLGYRQDDPSYRSFHSGGYGQDALGMDPMMEHEMGGHHPGADYPVDGLPDLGHAQDLMDGLPPGDSNQLAWFDTDL
modifications: left off: large carriers; small tags and cut ends
Consider B3, for which the “Interaction With Conductin, share” value with conductin was “— (Interactions marked by — correspond to 60–100% of the wild type interaction)”. Also, the “Interaction With E-Cadherin, share” value in the experiment with E-cadherin is listed as “— (Interactions marked by — correspond to 60–100% of the wild type interaction)”. Moreover, in experiment [1], the “Interaction With APC-15, share” value is 59%. The “Interaction With APC-20, share” value in experiment [2] turned out to be 0%. Moreover, the “interaction with APC 20aa” value in experiment [2] (β-catenin mutation, in words) is “no interaction with APC 20aa”. Further, in the experiment with LEF-1, the “Interaction With LEF-1, share” value was “— (Interactions marked by — correspond to 60–100% of the wild type interaction)”.

B4: Phe 253: human β-catenin mutant, Phe 253 substituted by alanine (arm 3) (protein)
chain: LHNLSHHREGLLAIFKSGGIPALVKMLGSPVDSVLAYAITTLHNLLLHQEGAKMAVRLAGGLQKMVALLNKTNVKFLAITTDCLQILAYGNQESKLIILASGGPQALVNIMRTYTYEKLLWTTSRVLKVLSVCSSNKPAIVEAGGMQALGLHLTDPSQRLVQNCLWTLRNLSDAATKQEGMEGLLGTLVQLLGSDDINVVTCAAGILSNLTCNNYKNKMMVCQVGGIEALVRTVLRAGDREDITEPAICALRHLTSRHQEAEMAQNAVRLHYGLPVVVKLLHPPSHWPLIKATVGLIRNLALCPANHAPLREQGAIPRLVQLLVRAHQDTQRRTSMGGTQQQFVEGVRMEEIVEGCTGALHILARDVHNRIVIRGLNTIPLFVQLLYSPIENIQRVAAGVLCELAQDKEAAEAIEAEGATAPLTELLHSRNEGVATYAAAVLFRMSEDKPQDYKKRLSVELTSSLFRTEPMAWNETADLGLDIGAQGEPLGYRQDDPSYRSFHSGGYGQDALGMDPMMEHEMGGHHPGADYPVDGLPDLGHAQDLMDGLPPGDSNQLAWFDTDL
modifications: left off: large carriers; small tags and cut ends
For the molecule B4, in the experiment with conductin, the “Interaction With Conductin, share” value stood at 17% and the interaction with conductin result is on record as “no interaction with conductin”. In addition, the “Interaction With E-Cadherin, share” value in the experiment with E-cadherin was “— (Interactions marked by — correspond to 60–100% of the wild type interaction)”. Besides, in experiment [1], the “Interaction With APC-15, share” value was “— (Interactions marked by — correspond to 60–100% of the wild type interaction)”. Also, the “Interaction With APC-20, share” value in experiment [2] came out at 40%. In addition, the “Interaction With LEF-1, share” value with LEF-1 is listed as “— (Interactions marked by — correspond to 60–100% of the wild type interaction)”.
